From patent US20050282743A1, “Molecular interactions in cells” (Arbor Vita Corporation, priority 2001, published 2005)
Ends that are not written are not given here. Peptide text beside a SMILES is read from it. * marks the point of attachment. Biotin = O=C1N[C@H]2[C@H](CS[C@H]2CCCCC(=O)*)N1

Legend:
Test in all cases: G' assay (10 uM PL peptide), results of TABLE 7 and TABLE 12
Type in all cases: binding
[1] = target: T1, PDZ protein (GST-PDZ fusion) (Homo sapiens, UniProt O14907); settings: PDZ TIP1, PDZ Domain 1
T1 construct: made in house; host or cells: E. coli (DH5alpha, BL21 or JM109)
T1 sequence (O14907 1-124): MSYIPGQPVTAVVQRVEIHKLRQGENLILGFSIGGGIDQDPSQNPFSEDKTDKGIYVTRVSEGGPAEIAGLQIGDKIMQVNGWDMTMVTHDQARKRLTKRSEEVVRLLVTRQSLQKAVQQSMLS
Summary of the method: (§1)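 Same steps as the G-zero format, apart from a peptide concentration of 10 uM in place of 20 uM in step 2. Amino-terminally biotinylated PL peptides bind GST-PDZ fusions, and retained peptide is quantified by 450 nm absorbance.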

[2] = target: T2, PDZ protein (GST-PDZ fusion) (Homo sapiens, UniProt O15018)
T2 construct: made in house; host or cells: E. coli (DH5alpha, BL21 or JM109)
Summary of the method: as §1

[3] = target: T3, PDZ protein (GST-PDZ fusion) (Homo sapiens, UniProt P57105); settings: PDZ Outer Membrane, PDZ Domain 1
T3 construct: made in house; host or cells: E. coli (DH5alpha, BL21 or JM109)
T3 sequence (P57105 1-145): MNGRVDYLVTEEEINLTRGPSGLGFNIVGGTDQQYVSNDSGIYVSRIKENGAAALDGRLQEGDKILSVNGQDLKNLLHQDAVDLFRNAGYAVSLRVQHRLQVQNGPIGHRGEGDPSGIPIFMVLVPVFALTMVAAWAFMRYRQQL
Summary of the method: as §1

[4] = target: T4, PDZ protein (GST-PDZ fusion) (Homo sapiens, UniProt Q86UL8)
T4 construct: made in house; host or cells: E. coli (DH5alpha, BL21 or JM109)
Summary of the method: as §1

[5] = target: T5, PDZ protein (GST-PDZ fusion) (Homo sapiens, UniProt Q8NI35); settings: PDZ INADL
T5 construct: made in house; host or cells: E. coli (DH5alpha, BL21 or JM109)
Summary of the method: as §1

[6] = target: T6, PDZ protein (GST-PDZ fusion) (Homo sapiens, UniProt P78352)
T6 construct: made in house; host or cells: E. coli (DH5alpha, BL21 or JM109)
Summary of the method: as §1

[7] = target: T7, PDZ protein (GST-PDZ fusion) (Homo sapiens, UniProt Q14160); settings: PDZ KIAA0147, PDZ Domain 1
T7 construct: made in house; host or cells: E. coli (DH5alpha, BL21 or JM109)
Summary of the method: as §1

[8] = target: T8, PDZ protein (GST-PDZ fusion) (Homo sapiens, UniProt Q15700)
T8 construct: made in house; host or cells: E. coli (DH5alpha, BL21 or JM109)
Summary of the method: as §1

[9] = PDZ Atrophin-1 Inter. Prot., PDZ Domain 5
[10] = PDZ atrophin-1 interacting Protein, PDZ Domain 1

T5 sequence (Q8NI35 whole entry, the tested form may be a part): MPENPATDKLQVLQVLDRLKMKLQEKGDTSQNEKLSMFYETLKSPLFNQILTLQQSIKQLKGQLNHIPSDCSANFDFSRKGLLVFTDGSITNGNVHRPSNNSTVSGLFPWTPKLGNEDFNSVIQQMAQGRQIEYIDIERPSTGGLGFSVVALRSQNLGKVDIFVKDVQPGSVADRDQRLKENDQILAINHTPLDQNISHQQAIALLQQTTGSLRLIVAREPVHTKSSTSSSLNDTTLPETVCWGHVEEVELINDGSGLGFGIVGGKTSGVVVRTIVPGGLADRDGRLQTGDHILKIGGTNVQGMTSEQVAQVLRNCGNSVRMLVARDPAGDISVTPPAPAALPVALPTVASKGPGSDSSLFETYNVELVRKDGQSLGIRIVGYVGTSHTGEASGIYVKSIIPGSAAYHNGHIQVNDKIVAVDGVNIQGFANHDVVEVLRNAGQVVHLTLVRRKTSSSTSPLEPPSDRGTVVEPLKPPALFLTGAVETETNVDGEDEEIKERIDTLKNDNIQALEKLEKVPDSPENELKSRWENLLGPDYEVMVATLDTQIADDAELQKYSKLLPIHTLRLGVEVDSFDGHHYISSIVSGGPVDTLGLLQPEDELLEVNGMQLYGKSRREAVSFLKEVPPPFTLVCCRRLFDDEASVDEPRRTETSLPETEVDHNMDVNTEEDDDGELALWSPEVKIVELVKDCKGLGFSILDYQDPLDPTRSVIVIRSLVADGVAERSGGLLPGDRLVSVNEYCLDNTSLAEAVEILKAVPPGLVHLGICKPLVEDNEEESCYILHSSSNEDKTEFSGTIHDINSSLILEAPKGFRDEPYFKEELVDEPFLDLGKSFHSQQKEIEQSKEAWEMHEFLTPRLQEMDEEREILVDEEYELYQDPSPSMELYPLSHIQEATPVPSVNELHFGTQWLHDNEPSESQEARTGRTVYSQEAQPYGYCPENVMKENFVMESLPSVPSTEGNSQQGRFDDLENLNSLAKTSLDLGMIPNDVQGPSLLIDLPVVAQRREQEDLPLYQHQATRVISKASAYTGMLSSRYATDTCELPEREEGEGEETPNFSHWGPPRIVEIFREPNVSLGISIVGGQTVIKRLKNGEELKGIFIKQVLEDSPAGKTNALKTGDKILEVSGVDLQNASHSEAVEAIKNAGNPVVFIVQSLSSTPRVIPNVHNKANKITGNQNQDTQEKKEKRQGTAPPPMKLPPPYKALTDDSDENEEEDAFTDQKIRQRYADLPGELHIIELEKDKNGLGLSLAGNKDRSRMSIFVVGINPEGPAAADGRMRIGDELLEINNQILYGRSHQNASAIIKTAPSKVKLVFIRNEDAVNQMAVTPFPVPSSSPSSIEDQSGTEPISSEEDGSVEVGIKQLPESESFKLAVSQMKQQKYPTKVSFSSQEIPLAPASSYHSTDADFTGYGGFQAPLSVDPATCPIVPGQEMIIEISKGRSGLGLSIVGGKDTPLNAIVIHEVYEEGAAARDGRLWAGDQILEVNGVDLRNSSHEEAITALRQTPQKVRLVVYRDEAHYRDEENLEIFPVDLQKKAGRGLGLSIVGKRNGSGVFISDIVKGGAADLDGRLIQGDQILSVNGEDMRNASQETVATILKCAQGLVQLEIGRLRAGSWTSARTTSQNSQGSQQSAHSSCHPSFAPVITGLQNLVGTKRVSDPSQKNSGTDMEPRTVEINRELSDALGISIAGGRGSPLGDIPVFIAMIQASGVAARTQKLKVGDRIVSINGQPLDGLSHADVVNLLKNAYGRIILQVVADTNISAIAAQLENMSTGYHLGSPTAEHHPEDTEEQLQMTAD
T4 sequence (Q86UL8 whole entry, the tested form may be a part): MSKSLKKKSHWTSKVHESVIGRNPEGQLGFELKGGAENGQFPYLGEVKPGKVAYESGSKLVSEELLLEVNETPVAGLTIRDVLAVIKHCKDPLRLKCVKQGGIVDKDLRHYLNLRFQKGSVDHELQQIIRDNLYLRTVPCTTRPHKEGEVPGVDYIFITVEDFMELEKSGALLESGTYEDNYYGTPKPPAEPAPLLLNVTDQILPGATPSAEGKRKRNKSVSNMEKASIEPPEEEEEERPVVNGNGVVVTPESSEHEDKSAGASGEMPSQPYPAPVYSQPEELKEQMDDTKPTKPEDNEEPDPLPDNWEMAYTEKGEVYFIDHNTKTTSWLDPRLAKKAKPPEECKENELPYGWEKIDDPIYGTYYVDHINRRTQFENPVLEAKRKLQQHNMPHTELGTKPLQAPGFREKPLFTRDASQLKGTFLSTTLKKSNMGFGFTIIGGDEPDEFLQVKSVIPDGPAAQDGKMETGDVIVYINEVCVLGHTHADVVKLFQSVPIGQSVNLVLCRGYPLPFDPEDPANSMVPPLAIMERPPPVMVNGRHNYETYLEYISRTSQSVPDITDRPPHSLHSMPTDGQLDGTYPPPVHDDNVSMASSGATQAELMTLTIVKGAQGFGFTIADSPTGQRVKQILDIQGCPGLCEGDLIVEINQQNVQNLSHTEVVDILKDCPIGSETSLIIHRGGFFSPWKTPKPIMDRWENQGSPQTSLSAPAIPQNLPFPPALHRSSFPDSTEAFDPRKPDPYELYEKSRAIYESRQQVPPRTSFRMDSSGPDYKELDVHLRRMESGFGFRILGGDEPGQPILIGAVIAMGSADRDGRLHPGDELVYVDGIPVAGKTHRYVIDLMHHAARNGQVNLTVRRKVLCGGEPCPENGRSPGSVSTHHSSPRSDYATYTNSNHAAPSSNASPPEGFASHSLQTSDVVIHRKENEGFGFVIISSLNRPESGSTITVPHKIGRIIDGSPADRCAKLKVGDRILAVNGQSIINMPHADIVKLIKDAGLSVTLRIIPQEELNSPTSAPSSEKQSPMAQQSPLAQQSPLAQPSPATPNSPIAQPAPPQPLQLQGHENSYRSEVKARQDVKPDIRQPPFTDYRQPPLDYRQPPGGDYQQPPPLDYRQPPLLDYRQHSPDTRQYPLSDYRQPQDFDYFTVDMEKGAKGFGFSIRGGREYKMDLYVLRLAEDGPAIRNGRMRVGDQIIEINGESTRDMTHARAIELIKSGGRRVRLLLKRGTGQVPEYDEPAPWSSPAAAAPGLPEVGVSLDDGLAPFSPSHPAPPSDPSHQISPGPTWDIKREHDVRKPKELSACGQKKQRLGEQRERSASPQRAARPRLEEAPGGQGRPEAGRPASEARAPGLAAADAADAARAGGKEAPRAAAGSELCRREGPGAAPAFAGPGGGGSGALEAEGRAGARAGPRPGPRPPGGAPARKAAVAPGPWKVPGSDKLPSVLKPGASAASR
T6 sequence (P78352 whole entry, the tested form may be a part): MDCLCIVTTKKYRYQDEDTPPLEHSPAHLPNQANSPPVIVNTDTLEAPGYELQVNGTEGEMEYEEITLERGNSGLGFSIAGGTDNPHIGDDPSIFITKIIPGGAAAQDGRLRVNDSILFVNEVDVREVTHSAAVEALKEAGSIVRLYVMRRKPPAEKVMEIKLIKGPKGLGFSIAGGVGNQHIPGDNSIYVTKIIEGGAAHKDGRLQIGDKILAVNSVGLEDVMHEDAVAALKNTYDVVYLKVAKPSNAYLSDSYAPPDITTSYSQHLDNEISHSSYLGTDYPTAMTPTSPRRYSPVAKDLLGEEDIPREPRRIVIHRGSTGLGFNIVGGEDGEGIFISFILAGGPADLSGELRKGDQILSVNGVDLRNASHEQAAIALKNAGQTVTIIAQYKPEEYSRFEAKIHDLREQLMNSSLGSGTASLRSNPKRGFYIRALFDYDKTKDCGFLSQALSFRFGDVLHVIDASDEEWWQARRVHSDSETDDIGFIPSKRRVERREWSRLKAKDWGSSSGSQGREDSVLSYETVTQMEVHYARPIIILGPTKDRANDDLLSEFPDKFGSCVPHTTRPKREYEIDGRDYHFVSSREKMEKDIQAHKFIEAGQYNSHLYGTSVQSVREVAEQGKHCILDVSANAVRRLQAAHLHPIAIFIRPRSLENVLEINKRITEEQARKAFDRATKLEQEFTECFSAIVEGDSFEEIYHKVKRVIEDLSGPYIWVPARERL
T8 sequence (Q15700 whole entry, the tested form may be a part): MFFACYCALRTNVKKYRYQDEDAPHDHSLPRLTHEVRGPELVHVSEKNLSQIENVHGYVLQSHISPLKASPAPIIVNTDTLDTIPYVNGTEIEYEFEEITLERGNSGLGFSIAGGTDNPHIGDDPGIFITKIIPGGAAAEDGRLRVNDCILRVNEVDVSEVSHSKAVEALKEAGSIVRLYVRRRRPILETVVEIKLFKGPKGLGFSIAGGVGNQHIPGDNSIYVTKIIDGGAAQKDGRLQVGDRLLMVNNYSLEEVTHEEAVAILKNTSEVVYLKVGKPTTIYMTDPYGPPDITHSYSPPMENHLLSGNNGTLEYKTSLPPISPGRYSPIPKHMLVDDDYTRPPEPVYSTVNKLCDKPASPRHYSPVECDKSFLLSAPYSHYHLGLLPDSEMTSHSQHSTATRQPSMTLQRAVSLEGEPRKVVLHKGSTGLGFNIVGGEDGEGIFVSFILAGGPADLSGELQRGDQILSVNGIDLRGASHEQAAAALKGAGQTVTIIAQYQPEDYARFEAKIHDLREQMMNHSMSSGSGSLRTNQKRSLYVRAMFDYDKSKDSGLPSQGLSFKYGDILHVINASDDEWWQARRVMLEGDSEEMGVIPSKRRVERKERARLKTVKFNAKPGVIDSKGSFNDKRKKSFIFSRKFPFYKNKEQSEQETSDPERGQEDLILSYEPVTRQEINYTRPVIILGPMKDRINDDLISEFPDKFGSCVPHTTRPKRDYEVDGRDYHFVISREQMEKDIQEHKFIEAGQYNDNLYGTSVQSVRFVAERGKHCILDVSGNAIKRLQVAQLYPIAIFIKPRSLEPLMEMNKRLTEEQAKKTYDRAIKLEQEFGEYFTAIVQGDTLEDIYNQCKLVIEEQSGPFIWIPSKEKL

Compound: ELLQFCRTPNPALKNGQYWV (Biotin-ELLQFCRTPNPALKNGQYWV)
- Classification [1]: 1 (A450 nm 0-1)
- Classification ([2]; PDZ AIPC, PDZ Domain 1): 5 (A450 nm of 4 more than 2× repeated)
- Classification ([2]; PDZ KIAA0300, PDZ Domain 1): 2 (A450 nm 1-2)
- Classification [3]: 1 (A450 nm 0-1)
- Classification [4, 9]: 2 (A450 nm 1-2)
- Classification [4, 10]: 1 (A450 nm 0-1)
- Classification ([4]; PDZ atrophin-1 interacting Protein, PDZ Domain 3): 2 (A450 nm 1-2)
- Classification ([5]; PDZ Domain 3): 3 (A450 nm 2-3)
- Classification ([5]; PDZ Domain 5): 5 (A450 nm of 4 more than 2× repeated)
- Classification ([5]; PDZ Domain 8): 3 (A450 nm 2-3)

Compound: ARHRVTSYTSSSVNVSSNL (Biotin-ARHRVTSYTSSSVNVSSNL) [IL-8RB]
- Classification [1]: 1 (A450 nm 0-1)

Compound: CC[C@H](C)[C@H](NC(=O)[C@H](CO)NC(=O)[C@@H](NC(=O)[C@H](Cc1ccccc1)NC(=O)[C@H](CO)NC(=O)CCCC[C@@H]1SC[C@@H]2NC(=O)N[C@@H]21)[C@@H](C)O)C(=O)N[C@@H](CC(C)C)C(=O)N[C@H](C(=O)N[C@@H](CS)C(=O)N[C@@H](Cc1c[nH]cn1)C(=O)N[C@@H](CCC(N)=O)C(=O)N[C@@H](CCCNC(=N)N)C(=O)N[C@@H](CCCNC(=N)N)C(=O)N[C@H](C(=O)N[C@@H](CCC(N)=O)C(=O)N[C@@H](CCCNC(=N)N)C(=O)N[C@@H](CCCCN)C(=O)N[C@@H](CCC(=O)O)C(=O)N[C@H](C(=O)N[C@H](C(=O)N[C@@H](C)C(=O)O)C(C)C)[C@@H](C)O)[C@@H](C)O)[C@@H](C)O [GluR5-2 (rat)]
- Classification ([6]; PDZ PSD95, PDZ Domain 1): 3 (A450 nm 2-3)
- Classification ([6]; PDZ PSD95, PDZ Domain 1, 2, 3): 5 (A450 nm of 4 more than 2× repeated)
- Classification ([6]; PDZ PSD95, PDZ Domain 3): 5 (A450 nm of 4 more than 2× repeated)
- Classification [7]: 2 (A450 nm 1-2)
- Classification ([8]; PDZ DLG2, PDZ Domain 1): 1 (A450 nm 0-1)
- Classification ([8]; PDZ DLG2, PDZ Domain 2): 1 (A450 nm 0-1)
- Classification [4, 10]: 1 (A450 nm 0-1)

Compound: ISGTPTSTMVHGMTSSSSVV (Biotin-ISGTPTSTMVHGMTSSSSVV) [Clasp-2]
- Classification ([2]; PDZ AIPC, PDZ Domain 1): 1 (A450 nm 0-1)
- Classification [3]: 1 (A450 nm 0-1)
- Classification ([6]; PDZ PSD95, PDZ Domain 1): 1 (A450 nm 0-1)
- Classification ([5]; PDZ Domain 8): 1 (A450 nm 0-1)

Compound: SLKPGTVLPPPPYRHRNTVV (Biotin-SLKPGTVLPPPPYRHRNTVV) [ErbB-4 receptor]
- Classification ([6]; PDZ PSD95, PDZ Domain 1, 2, 3): 1 (A450 nm 0-1)

Compound: CC[C@H](C)[C@H](NC(=O)[C@H](CCC(N)=O)NC(=O)[C@@H](NC(=O)[C@H](Cc1c[nH]cn1)NC(=O)[C@H](CCC(N)=O)NC(=O)[C@H](CC(=O)O)NC(=O)[C@H](CCC(=O)O)NC(=O)[C@H](CC(=O)O)NC(=O)[C@H](Cc1ccccc1)NC(=O)[C@@H]1CCCN1C(=O)[C@H](CCC(=O)O)NC(=O)[C@H](CC(N)=O)NC(=O)[C@H](CCC(=O)O)NC(=O)[C@@H]1CCCN1C(=O)[C@H](CC(=O)O)NC(=O)[C@H](CO)NC(=O)[C@H](CC(=O)O)NC(=O)CCCC[C@@H]1SC[C@@H]2NC(=O)N[C@@H]21)[C@@H](C)O)C(=O)N[C@H](C(=O)N[C@@H](CCCCN)C(=O)N[C@H](C(=O)O)C(C)C)[C@@H](C)O [PTEN]
- Classification [1]: 2 (A450 nm 1-2)
- Classification ([2]; PDZ AIPC, PDZ Domain 1): 1 (A450 nm 0-1)
- Classification [4, 9]: 2 (A450 nm 1-2)
- Classification ([5]; PDZ Domain 8): 1 (A450 nm 0-1)

Compound: GPVPGEPAKPKTSAHHATFV (Biotin-GPVPGEPAKPKTSAHHATFV)
- Classification [1]: 1 (A450 nm 0-1)

Compound: CC[C@H](C)[C@H](NC(=O)[C@H](C)NC(=O)[C@H](CC(C)C)NC(=O)[C@H](Cc1c[nH]c2ccccc12)NC(=O)[C@H](Cc1c[nH]cn1)NC(=O)[C@H](CCC(N)=O)NC(=O)[C@H](CC(C)C)NC(=O)[C@H](CCC(N)=O)NC(=O)[C@H](Cc1ccccc1)NC(=O)[C@H](CCC(N)=O)NC(=O)[C@H](CCCNC(=N)N)NC(=O)[C@@H](NC(=O)[C@H](CC(=O)O)NC(=O)[C@H](CCCNC(=N)N)NC(=O)[C@H](CCC(N)=O)NC(=O)[C@H](C)NC(=O)[C@@H](NC(=O)[C@H](CC(C)C)NC(=O)[C@H](Cc1c[nH]cn1)NC(=O)[C@H](Cc1c[nH]cn1)NC(=O)CCCC[C@@H]1SC[C@@H]2NC(=O)N[C@@H]21)C(C)C)[C@@H](C)CC)C(=O)O [noradrenaline transporter] (Biotin-HHLVAQRDIRQFQLQHWLAI-OH; C-terminus assumed)
- Classification ([2]; PDZ AIPC, PDZ Domain 1): 2 (A450 nm 1-2)
- Classification ([5]; PDZ Domain 3): 3 (A450 nm 2-3)
